Measured values published in the Immune Epitope Database (IEDB).
pKd: −log10 of the molar value.

Assays:
HLA-A*01:01 = test: IEDB peptide-MHC binding, purified MHC/direct/fluorescence; filed as Kd, often an IC50 or EC50 that approximates it; ≥ and ≤ were set here for values at or beyond the usual limits of such assays; details: source organism: Mycobacterium tuberculosis
HLA-A*02:01 [1] = test: as above; details: source organism: Mycobacterium tuberculosis
HLA-A*03:01 [2] = test: as above; details: source organism: Mycobacterium tuberculosis
HLA-A*31:01 [3] = test: as above; details: source organism: Mycobacterium tuberculosis
HLA-B*15:01 [4] = test: as above; details: source organism: Mycobacterium tuberculosis
HLA-B*15:09 = test: as above; details: source organism: Mycobacterium tuberculosis str. Haarlem
HLA-B*15:17 [5] = test: as above; details: source organism: Mycobacterium tuberculosis
HLA-B*27:05 = test: as above; details: source organism: Mycobacterium tuberculosis
HLA-B*40:01 = test: as above; details: source organism: Mycobacterium tuberculosis
HLA-B*46:01 [6] = test: as above; details: source organism: Mycobacterium tuberculosis
HLA-B*48:01 = test: as above; details: source organism: Mycobacterium tuberculosis
HLA-B*51:01 [7] = test: as above; details: source organism: Mycobacterium tuberculosis
HLA-B*57:01 [8] = test: as above; details: source organism: Mycobacterium tuberculosis
HLA-B*58:01 = test: as above; details: source organism: Mycobacterium tuberculosis
HLA-A*11:01 = test: IEDB peptide-MHC binding, purified MHC/competitive/fluorescence; filed as Kd, often an IC50 or EC50 that approximates it; ≥ and ≤ were set here for values at or beyond the usual limits of such assays; details: source organism: Mycobacterium tuberculosis variant bovis BCG str. Pasteur 1173P2
HLA-A*30:01 = test: as above; details: source organism: Mycobacterium tuberculosis variant bovis BCG str. Pasteur 1173P2
HLA-A*69:01 = test: as above
HLA-B*08:01 = test: as above
HLA-B*39:01 = test: as above
HLA-A*02:01 [9] = test: as above
HLA-A*02:03 = test: as above
HLA-A*02:11 = test: as above
HLA-A*02:19 = test: as above
HLA-A*02:12 = test: as above
HLA-A*02:16 = test: as above
HLA-A*23:01 = test: as above
HLA-A*24:03 = test: as above
HLA-A*26:01 = test: as above
HLA-A*29:02 = test: as above
HLA-A*31:01 [10] = test: as above; details: source organism: Entamoeba histolytica HM-1:IMSS
HLA-A*68:02 = test: as above
HLA-B*15:01 [11] = test: as above
HLA-B*18:01 = test: as above
HLA-B*27:03 = test: as above
HLA-B*46:01 [12] = test: as above
HLA-B*51:01 [13] = test: as above
HLA-B*57:01 [14] = test: as above
HLA-B*07:02 = test: as above; details: source organism: Yersinia pestis Nepal516
HLA-A*03:01 [15] = test: as above
HLA-B*15:17 [16] = test: as above; details: source organism: Burkholderia pseudomallei K96243
[17] = source organism: Mycobacterium tuberculosis variant bovis BCG str. Pasteur 1173P2
[18] = source organism: Human immunodeficiency virus 1
[19] = source organism: Entamoeba histolytica HM-1:IMSS
[20] = source organism: Yersinia pestis Nepal516
[21] = source organism: Plasmodium yoelii yoelii
[22] = source organism: Cryptosporidium parvum Iowa II
[23] = source organism: Burkholderia pseudomallei K96243

Q: With YPARVKCAL as the sequence, how does the pKd (HLA-A*01:01) read?
A: Its pKd is no more than 4.70.

Q: And the pKd (HLA-A*02:01 [1])?
A: The pKd was no more than 4.70.

Q: What about the pKd (HLA-A*03:01 [2]) of the same sequence?
A: Its pKd is no more than 4.70.

Q: And the pKd (HLA-A*31:01 [3])?
A: The pKd was no more than 4.70.

Q: And the pKd (HLA-B*15:01 [4])?
A: Its pKd is no more than 4.70.

Q: What about the pKd (HLA-B*15:09) of the same sequence?
A: The pKd was 5.96.

Q: What about the pKd (HLA-B*15:17 [5]) of the same sequence?
A: Its pKd is no more than 4.70.

Q: And the pKd (HLA-B*27:05)?
A: The pKd was no more than 4.70.

Q: And the pKd (HLA-B*40:01)?
A: The pKd was no more than 4.70.

Q: What about the pKd (HLA-B*46:01 [6]) of the same sequence?
A: Its pKd is no more than 4.70.

Q: What about the pKd (HLA-B*48:01) of the same sequence?
A: Its pKd is no more than 4.70.

Q: What about the pKd (HLA-B*51:01 [7]) of the same sequence?
A: The pKd was no more than 4.70.

Q: What about the pKd (HLA-B*57:01 [8]) of the same sequence?
A: The pKd was no more than 4.70.

Q: And the pKd (HLA-B*58:01)?
A: The pKd was no more than 4.70.

Q: What about the pKd (HLA-A*11:01) of the same sequence?
A: Its pKd is no more than 4.70.

Q: What about the pKd (HLA-A*30:01) of the same sequence?
A: The pKd was 5.60.

Q: And the pKd (HLA-A*69:01; [17])?
A: Its pKd is no more than 4.70.

Q: What about the pKd (HLA-B*08:01; [17]) of the same sequence?
A: The pKd was 7.01.

Q: And the pKd (HLA-B*39:01; [17])?
A: The pKd was 7.64.

Q: Which results are given for GLADQLIHM?
A: pKd (HLA-A*02:01 [9]; [18]): 7.08; pKd (HLA-A*02:03; [18]): 8.62; pKd (HLA-A*02:11; [18]): 9.10; pKd (HLA-A*02:19; [18]): 6.81; pKd (HLA-A*69:01; [18]): ≤ 4.70

Q: What does the source list for RSLVCLAPK?
A: pKd (HLA-A*02:01 [9]; [19]): ≤ 4.70; pKd (HLA-A*02:03; [19]): ≤ 4.70; pKd (HLA-A*02:11; [19]): ≤ 4.70; pKd (HLA-A*02:12; [19]): ≤ 4.70; pKd (HLA-A*02:16; [19]): ≤ 4.70; pKd (HLA-A*02:19; [19]): ≤ 4.70; pKd (HLA-A*23:01; [19]): ≤ 4.70; pKd (HLA-A*24:03; [19]): ≤ 4.70; pKd (HLA-A*26:01; [19]): ≤ 4.70; pKd (HLA-A*29:02; [19]): ≤ 4.70; pKd (HLA-A*31:01 [10]): 7.33; pKd (HLA-A*68:02; [19]): ≤ 4.70; pKd (HLA-A*69:01; [19]): ≤ 4.70; pKd (HLA-B*15:01 [11]; [19]): ≤ 4.70; pKd (HLA-B*18:01; [19]): ≤ 4.70; pKd (HLA-B*27:03; [19]): ≤ 4.70; pKd (HLA-B*39:01; [19]): ≤ 4.70; pKd (HLA-B*46:01 [12]; [19]): ≤ 4.70; pKd (HLA-B*51:01 [13]; [19]): ≤ 4.70; pKd (HLA-B*57:01 [14]; [19]): ≤ 4.70

Q: What does the source list for MPLKVQVCI?
A: pKd (HLA-B*07:02): 6.52; pKd (HLA-B*08:01; [20]): 6.09; pKd (HLA-B*51:01 [13]; [20]): 5.90

Q: KPPRGVLLY was tested. Which pKd (HLA-A*02:01 [9]; [21]) did it give?
A: The pKd was no more than 4.70.

Q: What about the pKd (HLA-A*02:03; [21]) of the same sequence?
A: The pKd was no more than 4.70.

Q: What about the pKd (HLA-A*02:12; [21]) of the same sequence?
A: The pKd was no more than 4.70.

Q: And the pKd (HLA-A*02:19; [21])?
A: Its pKd is no more than 4.70.

Q: What about the pKd (HLA-A*03:01 [15]; [21]) of the same sequence?
A: The pKd was no more than 4.70.

Q: What about the pKd (HLA-A*23:01; [21]) of the same sequence?
A: Its pKd is no more than 4.70.

Q: What about the pKd (HLA-A*24:03; [21]) of the same sequence?
A: The pKd was no more than 4.70.

Q: What about the pKd (HLA-A*26:01; [21]) of the same sequence?
A: The pKd was no more than 4.70.

Q: And the pKd (HLA-A*29:02; [21])?
A: The pKd was 6.94.

Q: And the pKd (HLA-A*68:02; [21])?
A: Its pKd is no more than 4.70.

Q: And the pKd (HLA-A*69:01; [21])?
A: Its pKd is no more than 4.70.

Q: And the pKd (HLA-B*15:01 [11]; [21])?
A: The pKd was no more than 4.70.

Q: What about the pKd (HLA-B*18:01; [21]) of the same sequence?
A: The pKd was no more than 4.70.

Q: What about the pKd (HLA-B*27:03; [21]) of the same sequence?
A: The pKd was no more than 4.70.

Q: And the pKd (HLA-B*39:01; [21])?
A: Its pKd is no more than 4.70.

Q: And the pKd (HLA-B*46:01 [12]; [21])?
A: Its pKd is no more than 4.70.

Q: And the pKd (HLA-B*51:01 [13]; [21])?
A: The pKd was no more than 4.70.

Q: And the pKd (HLA-B*57:01 [14]; [21])?
A: Its pKd is no more than 4.70.

Q: With LTAPCDIYV as the sequence, how does the pKd (HLA-A*02:01 [9]; [22]) read?
A: The pKd was no more than 4.70.

Q: And the pKd (HLA-A*02:11; [22])?
A: The pKd was no more than 4.70.

Q: And the pKd (HLA-A*02:16; [22])?
A: The pKd was 9.30.

Q: And the pKd (HLA-A*02:19; [22])?
A: Its pKd is no more than 4.70.

Q: And the pKd (HLA-A*03:01 [15]; [22])?
A: Its pKd is no more than 4.70.

Q: And the pKd (HLA-A*23:01; [22])?
A: The pKd was no more than 4.70.

Q: What about the pKd (HLA-A*24:03; [22]) of the same sequence?
A: The pKd was no more than 4.70.

Q: And the pKd (HLA-A*26:01; [22])?
A: The pKd was no more than 4.70.

Q: What about the pKd (HLA-A*29:02; [22]) of the same sequence?
A: Its pKd is no more than 4.70.

Q: What about the pKd (HLA-B*15:01 [11]; [22]) of the same sequence?
A: The pKd was no more than 4.70.

Q: And the pKd (HLA-B*18:01; [22])?
A: The pKd was no more than 4.70.

Q: What about the pKd (HLA-B*27:03; [22]) of the same sequence?
A: The pKd was no more than 4.70.

Q: And the pKd (HLA-B*39:01; [22])?
A: Its pKd is no more than 4.70.

Q: And the pKd (HLA-B*46:01 [12]; [22])?
A: Its pKd is no more than 4.70.

Q: What about the pKd (HLA-B*51:01 [13]; [22]) of the same sequence?
A: Its pKd is no more than 4.70.

Q: And the pKd (HLA-B*57:01 [14]; [22])?
A: Its pKd is no more than 4.70.

Q: With SELTVSPPD as the sequence, how does the pKd (HLA-A*02:01 [9]; [23]) read?
A: The pKd was no more than 4.70.

Q: What about the pKd (HLA-A*02:03; [23]) of the same sequence?
A: Its pKd is no more than 4.70.

Q: And the pKd (HLA-A*02:12; [23])?
A: The pKd was no more than 4.70.

Q: What about the pKd (HLA-A*02:16; [23]) of the same sequence?
A: Its pKd is no more than 4.70.

Q: What about the pKd (HLA-A*02:19; [23]) of the same sequence?
A: Its pKd is no more than 4.70.

Q: And the pKd (HLA-A*03:01 [15]; [23])?
A: The pKd was no more than 4.70.

Q: What about the pKd (HLA-A*24:03; [23]) of the same sequence?
A: The pKd was no more than 4.70.

Q: What about the pKd (HLA-A*26:01; [23]) of the same sequence?
A: Its pKd is no more than 4.70.

Q: And the pKd (HLA-A*68:02; [23])?
A: The pKd was no more than 4.70.

Q: And the pKd (HLA-A*69:01; [23])?
A: The pKd was no more than 4.70.

Q: And the pKd (HLA-B*15:01 [11]; [23])?
A: The pKd was no more than 4.70.

Q: What about the pKd (HLA-B*15:17 [16]) of the same sequence?
A: The pKd was no more than 4.70.

Q: And the pKd (HLA-B*18:01; [23])?
A: Its pKd is 6.07.

Q: And the pKd (HLA-B*27:03; [23])?
A: The pKd was no more than 4.70.

Q: And the pKd (HLA-B*39:01; [23])?
A: The pKd was no more than 4.70.

Q: What about the pKd (HLA-B*46:01 [12]; [23]) of the same sequence?
A: The pKd was no more than 4.70.

Q: And the pKd (HLA-B*51:01 [13]; [23])?
A: The pKd was no more than 4.70.

Q: What about the pKd (HLA-B*57:01 [14]; [23]) of the same sequence?
A: The pKd was no more than 4.70.
